Experimental findings from PMC4588886, “A link between magnesium-chelatase H subunit and sucrose nonfermenting 1 (SNF1)-related protein kinase SnRK2.6/OST1 in Arabidopsis guard cell signalling in response to abscisic acid” (Journal of Experimental Botany, 2015) are described below.

Usually Kd stands for a measure of binding affinity in units of concentration.

Assay [1] addresses T1, GST-tagged C-terminal half of ABAR protein (aa 681-1381) (Arabidopsis thaliana, UniProt Q9FNB0 681-1381).
T1 chain: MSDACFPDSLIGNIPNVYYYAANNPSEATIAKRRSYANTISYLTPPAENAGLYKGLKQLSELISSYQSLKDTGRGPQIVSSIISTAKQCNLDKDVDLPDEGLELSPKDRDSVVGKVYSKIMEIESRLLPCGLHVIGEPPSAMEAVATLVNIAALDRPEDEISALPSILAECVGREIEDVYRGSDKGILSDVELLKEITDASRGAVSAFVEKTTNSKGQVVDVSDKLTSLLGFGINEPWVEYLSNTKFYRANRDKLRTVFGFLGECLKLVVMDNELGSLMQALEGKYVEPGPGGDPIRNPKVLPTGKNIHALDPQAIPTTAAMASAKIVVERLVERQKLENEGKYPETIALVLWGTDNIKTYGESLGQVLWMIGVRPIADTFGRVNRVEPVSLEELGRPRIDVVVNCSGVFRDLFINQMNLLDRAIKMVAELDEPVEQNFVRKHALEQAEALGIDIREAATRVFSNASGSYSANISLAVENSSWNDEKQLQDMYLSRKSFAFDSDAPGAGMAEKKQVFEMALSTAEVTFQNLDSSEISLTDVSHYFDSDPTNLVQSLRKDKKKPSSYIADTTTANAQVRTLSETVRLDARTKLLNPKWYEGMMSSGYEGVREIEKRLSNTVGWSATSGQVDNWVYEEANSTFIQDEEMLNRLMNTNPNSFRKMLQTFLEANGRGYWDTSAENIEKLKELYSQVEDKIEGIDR
Put plainly: SPR.

For assay [2], the target named is T2, GST-tagged C-terminal half of ABAR protein (aa 681-1381) (Arabidopsis thaliana, UniProt Q9FNB0 681-1381).
T2 construct: Cloned into pGEX-4T-1; also called GST-ABAR; recombinant truncated ABAR protein; source: E. coli BL21(DE3), purified (Sepharose 4B)
T2 sequence (looked up): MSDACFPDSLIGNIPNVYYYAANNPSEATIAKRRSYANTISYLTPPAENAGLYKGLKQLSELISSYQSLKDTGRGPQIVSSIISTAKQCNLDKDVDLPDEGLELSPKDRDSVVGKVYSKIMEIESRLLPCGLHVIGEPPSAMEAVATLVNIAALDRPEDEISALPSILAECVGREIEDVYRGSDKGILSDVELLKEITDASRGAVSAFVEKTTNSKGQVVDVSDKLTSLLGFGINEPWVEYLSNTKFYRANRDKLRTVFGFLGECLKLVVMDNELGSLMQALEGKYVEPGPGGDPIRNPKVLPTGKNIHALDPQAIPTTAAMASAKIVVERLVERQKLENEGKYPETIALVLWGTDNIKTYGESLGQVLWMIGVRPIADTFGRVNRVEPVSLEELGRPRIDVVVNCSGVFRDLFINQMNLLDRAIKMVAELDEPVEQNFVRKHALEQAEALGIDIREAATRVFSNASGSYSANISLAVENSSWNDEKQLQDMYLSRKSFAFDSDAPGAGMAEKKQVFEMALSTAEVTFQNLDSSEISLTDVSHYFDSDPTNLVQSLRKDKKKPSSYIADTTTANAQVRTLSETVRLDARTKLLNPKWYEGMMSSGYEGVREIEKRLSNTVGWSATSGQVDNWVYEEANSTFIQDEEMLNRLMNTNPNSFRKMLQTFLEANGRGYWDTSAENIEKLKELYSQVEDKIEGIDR
The assay is described as follows: pull-down; GST-tagged ABAR (aa 681-1381, 1 ug) or GST alone added to E. coli lysate expressing His-tagged OST1; glutathione-sepharose 4B beads, 4 °C, 12 h; 10 mM Tris-HCl pH 7.5, 200 mM NaCl, 10% glycerol; blot with anti-His. To be noted: one partner purified.

B1: His-tagged OST1 protein (recombinant, full-length ORF) (enzyme, Arabidopsis thaliana, UniProt Q940H6 1-362, looked up)
chain: MDRPAVSGPMDLPIMHDSDRYELVKDIGSGNFGVARLMRDKQSNELVAVKYIERGEKIDENVKREIINHRSLRHPNIVRFKEVILTPTHLAIVMEYASGGELFERICNAGRFSEDEARFFFQQLISGVSYCHAMQVCHRDLKLENTLLDGSPAPRLKICDFGYSKSSVLHSQPKSTVGTPAYIAPEVLLKKEYDGKVADVWSCGVTLYVMLVGAYPFEDPEEPKNFRKTIHRILNVQYAIPDYVHISPECRHLISRIFVADPAKRISIPEIRNHEWFLKNLPADLMNDNTMTTQFDESDQPGQSIEEIMQIIAEATVPPAGTQNLNHYLTGSLDIDDDMEEDLESDLDDLDIDSSGEIVYAM
notes: SNF1-related protein kinase SnRK2.6/OST1/SRK2E, Arabidopsis thaliana, At4g33950, full-length ORF; Cloned into pET-48b(+); also called recombinant OST1; SnRK2.6; source: E. coli BL21(DE3): in cell lysate (pull-down); purified (Ni-NTA agarose)
As to B1, the dissociation constant Kd in assay [1] is roughly 71.4 nM. In assay [2], the binding result was “binds”.
